Reference: patent US20220073613A1 (XILIO DEVELOPMENT, published 2022)

Experiments:
[1] = biological target: T1, human CTLA4-Fc (R&D Systems, #7268-CT) (human, UniProt P16410 36-162); test: low density antigen binding ELISA, human CTLA4-Fc coated; no protease
T1 construct: Bought; not shown: Fc part

[2] = biological target: T1, human CTLA4-Fc (R&D Systems, #7268-CT); test: CTLA4 ELISA (luminescence) after culture of the non-cleavable masked antibody in RPMI as control
[3] = biological target: T1, human CTLA4-Fc (R&D Systems, #7268-CT); test: ELISA, human CTLA4-Fc coated; protease -
[4] = biological target: T1, human CTLA4-Fc (R&D Systems, #7268-CT); test: CTLA4 ELISA (luminescence) after culture of the masked antibody in RPMI as control
[5] = biological target: T1, human CTLA4-Fc (R&D Systems, #7268-CT); test: low density antigen binding ELISA, human CTLA4-Fc coated at 1 µg/mL, anti-human kappa-HRP
[6] = biological target: T1, human CTLA4-Fc (R&D Systems, #7268-CT); test: low density antigen binding ELISA, human CTLA4-Fc coated; after protease digestion

T1 sequence (P16410 36-162 limits assumed): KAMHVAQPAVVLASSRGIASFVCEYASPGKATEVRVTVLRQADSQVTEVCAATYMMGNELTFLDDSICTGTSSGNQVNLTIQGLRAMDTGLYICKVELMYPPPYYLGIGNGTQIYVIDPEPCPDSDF

Binder | EC50 [1] | EC50 [5] | other results
Antibody 2-12 (antibody, human IgG1, kappa) light: ACPFPALELCGSPGSPKPILFFRLSGGEIVLTQSPDFQSVTPKEKVTITCSANSALSYMYWYQQKPDQSPKLWVHGTSNLASGVPSRFSGSGSGTDFTLTINSLEAEDAATYYCHHWSNTQWTFGGGTKVEIKRTVAAPSVFIFPPSDEQLKSGTASVVCLLNNFYPREAKVQWKVDNALQSGNSQESVTEQDSKDSTYSLSSTLTLSKADYEKHKVYACEVTHQGLSSPVTKSFNRGEC heavy: not shown | 3.3 nM | – | –
Antibody 2-10 (antibody, human IgG1, kappa, also called non-cleavable masked Antibody 2-10) light: ACPFPALELCGGGSSGGSGGSGGSGSGGEIVLTQSPDFQSVTPKEKVTITCSANSALSYMYWYQQKPDQSPKLWVHGTSNLASGVPSRFSGSGSGTDFTLTINSLEAEDAATYYCHHWSNTQWTFGGGTKVEIKRTVAAPSVFIFPPSDEQLKSGTASVVCLLNNFYPREAKVQWKVDNALQSGNSQESVTEQDSKDSTYSLSSTLTLSKADYEKHKVYACEVTHQGLSSPVTKSFNRGEC heavy: not shown | 29.4 nM | – | EC50 (read off the curve) [2]: ~8 nM; EC50 [3]: 29.4 nM
Antibody 2-16 (antibody, human IgG1, kappa) light: ACPFPALELCSSGGSGPDSGGFMLTSGGEIVLTQSPDFQSVTPKEKVTITCSANSALSYMYWYQQKPDQSPKLWVHGTSNLASGVPSRFSGSGSGTDFTLTINSLEAEDAATYYCHHWSNTQWTFGGGTKVEIKRTVAAPSVFIFPPSDEQLKSGTASVVCLLNNFYPREAKVQWKVDNALQSGNSQESVTEQDSKDSTYSLSSTLTLSKADYEKHKVYACEVTHQGLSSPVTKSFNRGEC heavy: not shown | – | – | EC50 (read off the curve) [4]: ~6 nM
Antibody 1-1 (antibody, V domains shown, Humanized; wild type Fc region; Variable domains are stated for Antibody 1; full chains are not tied to the label Antibody 1-1; also called version of Antibody 1 having a wild type Fc region) VL: DIVMTQTPLSLSVTPGQPASISCRSSQSLLNSDGNTYLYWYLQKPGQSPQLLIYLVSKLGSGVPNRFSGSGSGTDFTLKISRVEAEDVGVYYCVQGTHDPWTFGGGTKVEIKR VH: QVQLQESGPGLVKPSETLSLTCSVTYHTITSGYDWTWIRKPPGKGMEWIGYISYSGNTNYNPSLKSRVTISRDTSKNQFFLKLSSVTAADTAVYYCASMMVPHYYVMDAWGQGTLVTVSSA | – | 0.32 nM | –
Antibody 2-8 (Activated) (antibody, not shown: small tags and cut ends) light: EIVLTQSPDFQSVTPKEKVTITCSANSALSYMYWYQQKPDQSPKLWVHGTSNLASGVPSRFSGSGSGTDFTLTINSLEAEDAATYYCHHWSNTQWTFGGGTKVEIKRTVAAPSVFIFPPSDEQLKSGTASVVCLLNNFYPREAKVQWKVDNALQSGNSQESVTEQDSKDSTYSLSSTLTLSKADYEKHKVYACEVTHQGLSSPVTKSFNRGEC heavy: not shown | – | – | EC50 [6]: 0.67 nM
Antibody 2-9 (Activated) (antibody, not shown: remnant of the cleaved linker (part of HEQLTV and spacer SGG)) light: EIVLTQSPDFQSVTPKEKVTITCSANSALSYMYWYQQKPDQSPKLWVHGTSNLASGVPSRFSGSGSGTDFTLTINSLEAEDAATYYCHHWSNTQWTFGGGTKVEIKRTVAAPSVFIFPPSDEQLKSGTASVVCLLNNFYPREAKVQWKVDNALQSGNSQESVTEQDSKDSTYSLSSTLTLSKADYEKHKVYACEVTHQGLSSPVTKSFNRGEC heavy: not shown | – | – | EC50 [6]: 0.67 nM
Antibody 2-13 (Activated) (antibody, not shown: small tags and cut ends) light: EIVLTQSPDFQSVTPKEKVTITCSANSALSYMYWYQQKPDQSPKLWVHGTSNLASGVPSRFSGSGSGTDFTLTINSLEAEDAATYYCHHWSNTQWTFGGGTKVEIKRTVAAPSVFIFPPSDEQLKSGTASVVCLLNNFYPREAKVQWKVDNALQSGNSQESVTEQDSKDSTYSLSSTLTLSKADYEKHKVYACEVTHQGLSSPVTKSFNRGEC heavy: not shown | – | – | EC50 [6]: 0.57 nM
Antibody 2-11 (Activated) (antibody, not shown: small tags and cut ends) light: EIVLTQSPDFQSVTPKEKVTITCSANSALSYMYWYQQKPDQSPKLWVHGTSNLASGVPSRFSGSGSGTDFTLTINSLEAEDAATYYCHHWSNTQWTFGGGTKVEIKRTVAAPSVFIFPPSDEQLKSGTASVVCLLNNFYPREAKVQWKVDNALQSGNSQESVTEQDSKDSTYSLSSTLTLSKADYEKHKVYACEVTHQGLSSPVTKSFNRGEC heavy: not shown | – | – | EC50 [6]: 0.62 nM
Antibody 2-12 (Activated) (antibody, not shown: small tags and cut ends) light: EIVLTQSPDFQSVTPKEKVTITCSANSALSYMYWYQQKPDQSPKLWVHGTSNLASGVPSRFSGSGSGTDFTLTINSLEAEDAATYYCHHWSNTQWTFGGGTKVEIKRTVAAPSVFIFPPSDEQLKSGTASVVCLLNNFYPREAKVQWKVDNALQSGNSQESVTEQDSKDSTYSLSSTLTLSKADYEKHKVYACEVTHQGLSSPVTKSFNRGEC heavy: not shown | – | – | EC50 [6]: 0.62 nM
Antibody 2-7 (antibody, human IgG1, kappa) light: ACPFPALELCGGSGGSVPLSLYSGGEIVLTQSPDFQSVTPKEKVTITCSANSALSYMYWYQQKPDQSPKLWVHGTSNLASGVPSRFSGSGSGTDFTLTINSLEAEDAATYYCHHWSNTQWTFGGGTKVEIKRTVAAPSVFIFPPSDEQLKSGTASVVCLLNNFYPREAKVQWKVDNALQSGNSQESVTEQDSKDSTYSLSSTLTLSKADYEKHKVYACEVTHQGLSSPVTKSFNRGEC heavy: not shown | 33.9 nM | – | EC50 [3]: 33.9 nM
Antibody 2-1 (antibody, V domains shown, Wild-type Fc region; Variable domains are stated for Antibody 2-6, another version of Antibody 2 that differs in the Fc region only; also called version of Antibody 2 having a wild-type Fc region) VL: EIVLTQSPDFQSVTPKEKVTITCSANSALSYMYWYQQKPDQSPKLWVHGTSNLASGVPSRFSGSGSGTDFTLTINSLEAEDAATYYCHHWSNTQWTFGGGTKVEIKR VH: QVQLVQSGAEVKKPGSSVKVSCKASGYTFTNYFMNWVRQAPGQGLEWMGRVDPEQGRADYAEKFKKRVTITADKSTSTAYMELSSLRSEDTAVYYCARRAMDNYGFAYWGQGTLVTVSSA | – | 0.44 nM | –
Antibody 2-2 (antibody, V domains shown, Fc region with S239D and I332E; also called version of Antibody 2 having a S239D mutation and an I332E mutation in the Fc region; unmasked Antibody 2-2) VL: EIVLTQSPDFQSVTPKEKVTITCSANSALSYMYWYQQKPDQSPKLWVHGTSNLASGVPSRFSGSGSGTDFTLTINSLEAEDAATYYCHHWSNTQWTFGGGTKVEIKR VH: QVQLVQSGAEVKKPGSSVKVSCKASGYTFTNYFMNWVRQAPGQGLEWMGRVDPEQGRADYAEKFKKRVTITADKSTSTAYMELSSLRSEDTAVYYCARRAMDNYGFAYWGQGTLVTVSSA | – | 0.39 nM | –
Antibody 2-3 (antibody, V domains shown, see m21; also called version of Antibody 2 having a S239D mutation, an I332E mutation in the Fc region, and two hinge region mutations) VL: EIVLTQSPDFQSVTPKEKVTITCSANSALSYMYWYQQKPDQSPKLWVHGTSNLASGVPSRFSGSGSGTDFTLTINSLEAEDAATYYCHHWSNTQWTFGGGTKVEIKR VH: QVQLVQSGAEVKKPGSSVKVSCKASGYTFTNYFMNWVRQAPGQGLEWMGRVDPEQGRADYAEKFKKRVTITADKSTSTAYMELSSLRSEDTAVYYCARRAMDNYGFAYWGQGTLVTVSSA | – | 0.4 nM | –
Antibody 2-4 (antibody, V domains shown, Fc with S239D, I332E, A330L; also called version of Antibody 2 having S239D, I332E, and A330L mutations in the Fc region) VL: EIVLTQSPDFQSVTPKEKVTITCSANSALSYMYWYQQKPDQSPKLWVHGTSNLASGVPSRFSGSGSGTDFTLTINSLEAEDAATYYCHHWSNTQWTFGGGTKVEIKR VH: QVQLVQSGAEVKKPGSSVKVSCKASGYTFTNYFMNWVRQAPGQGLEWMGRVDPEQGRADYAEKFKKRVTITADKSTSTAYMELSSLRSEDTAVYYCARRAMDNYGFAYWGQGTLVTVSSA | – | 0.4 nM | –
Antibody 2-5 (antibody, V domains shown, see m21; also called version of Antibody 2 having S239D, I332E, A330L mutations in the Fc region, and two hinge region mutations) VL: EIVLTQSPDFQSVTPKEKVTITCSANSALSYMYWYQQKPDQSPKLWVHGTSNLASGVPSRFSGSGSGTDFTLTINSLEAEDAATYYCHHWSNTQWTFGGGTKVEIKR VH: QVQLVQSGAEVKKPGSSVKVSCKASGYTFTNYFMNWVRQAPGQGLEWMGRVDPEQGRADYAEKFKKRVTITADKSTSTAYMELSSLRSEDTAVYYCARRAMDNYGFAYWGQGTLVTVSSA | – | 0.41 nM | –
Antibody 1-2 (antibody, human IgG1, kappa, also called version of Antibody 1 having a S239D mutation and an I332E mutation in the Fc region) light: DIVMTQTPLSLSVTPGQPASISCRSSQSLLNSDGNTYLYWYLQKPGQSPQLLIYLVSKLGSGVPNRFSGSGSGTDFTLKISRVEAEDVGVYYCVQGTHDPWTFGGGTKVEIKRTVAAPSVFIFPPSDEQLKSGTASVVCLLNNFYPREAKVQWKVDNALQSGNSQESVTEQDSKDSTYSLSSTLTLSKADYEKHKVYACEVTHQGLSSPVTKSFNRGEC heavy: not shown | – | 0.32 nM | –

Now from value to binder, other results behind:

EC50 [1] | EC50 [5] | Binder | other results
14.2 nM | – | Antibody 2-13 (antibody, human IgG1, kappa) light: ACPFPALELCGGSSPPRAAAVKSPSGGEIVLTQSPDFQSVTPKEKVTITCSANSALSYMYWYQQKPDQSPKLWVHGTSNLASGVPSRFSGSGSGTDFTLTINSLEAEDAATYYCHHWSNTQWTFGGGTKVEIKRTVAAPSVFIFPPSDEQLKSGTASVVCLLNNFYPREAKVQWKVDNALQSGNSQESVTEQDSKDSTYSLSSTLTLSKADYEKHKVYACEVTHQGLSSPVTKSFNRGEC heavy: not shown | –
54.8 nM | – | Antibody 2-8 (antibody, human IgG1, kappa) light: ACPFPALELCGGPGSSPMPYDLYHPSGGEIVLTQSPDFQSVTPKEKVTITCSANSALSYMYWYQQKPDQSPKLWVHGTSNLASGVPSRFSGSGSGTDFTLTINSLEAEDAATYYCHHWSNTQWTFGGGTKVEIKRTVAAPSVFIFPPSDEQLKSGTASVVCLLNNFYPREAKVQWKVDNALQSGNSQESVTEQDSKDSTYSLSSTLTLSKADYEKHKVYACEVTHQGLSSPVTKSFNRGEC heavy: not shown | –
48.9 nM | – | Antibody 2-9 (antibody, human IgG1, kappa) light: ACPFPALELCGGSSPPHEQLTVSGGEIVLTQSPDFQSVTPKEKVTITCSANSALSYMYWYQQKPDQSPKLWVHGTSNLASGVPSRFSGSGSGTDFTLTINSLEAEDAATYYCHHWSNTQWTFGGGTKVEIKRTVAAPSVFIFPPSDEQLKSGTASVVCLLNNFYPREAKVQWKVDNALQSGNSQESVTEQDSKDSTYSLSSTLTLSKADYEKHKVYACEVTHQGLSSPVTKSFNRGEC heavy: not shown | –
34.9 nM | – | Antibody 2-11 (antibody, human IgG1, kappa) light: ACPFPALELCSSPSPSGGGGIGQLTASGGEIVLTQSPDFQSVTPKEKVTITCSANSALSYMYWYQQKPDQSPKLWVHGTSNLASGVPSRFSGSGSGTDFTLTINSLEAEDAATYYCHHWSNTQWTFGGGTKVEIKRTVAAPSVFIFPPSDEQLKSGTASVVCLLNNFYPREAKVQWKVDNALQSGNSQESVTEQDSKDSTYSLSSTLTLSKADYEKHKVYACEVTHQGLSSPVTKSFNRGEC heavy: not shown | –
